B1: p53_R248W_A2_c12 (scFv)
scFv: DIQMTQSPSSLSASVGDRVTITCRASQDVNTAVAWYQQKPGKAPKLLIYSASFLYSGVPSRFSGSRSGTDFTLTISSLQPEDFATYYCQQYSYAPITFGQGTKVEIKRTGGGSGGGGSGGGASEVQLVESGGGLVQPGGSLRLSCAASGFNIGYYTMHWVRQAPGKGLEWVAEVSPWSYSTSYADSVKGRFTISADTSKNTAYLQMNSLRAEDTAVYYCSRDHWDEAFDVWGQGTLVTVSS
B2: p53_R248Q_A2_c14 (scFv)
scFv: DIQMTQSPSSLSASVGDRVTITCRASQDVNTAVAWYQQKPGKAPKLLIYSASFLYSGVPSRFSGSRSGTDFTLTISSLQPEDFATYYCQQSLYGPFTFGQGTKVEIKRTGGGSGGGGSGGGASEVQLVESGGGLVQPGGSLRLSCAASGFNIAYEYMHWVRQAPGKGLEWVALIGPDSGYTYYADSVKGRFTISADTSKNTAYLQMNSLRAEDTAVYYCSRVWYYSTYGMDYWGQGTLVTVSS
B3: p53_R248W_A2_c111 (scFv)
scFv: DIQMTQSPSSLSASVGDRVTITCRASQDVNTAVAWYQQKPGKAPKLLIYSASFLYSGVPSRFSGSRSGTDFTLTISSLQPEDFATYYCQQSGYQPDTFGQGTKVEIKRTGGGSGGGGSGGGASEVQLVESGGGLVQPGGSLRLSCAASGFNISWYAMHWVRQAPGKGLEWVAEIWPDSDWTYYADSVKGRFTISADTSKNTAYLQMNSLRAEDTAVYYCSRYYYSSAFDVWGQGTLVTVSS
B4: p53_R248W_A2_c18 (scFv)
scFv: DIQMTQSPSSLSASVGDRVTITCRASQDVNTAVAWYQQKPGKAPKLLIYSASFLYSGVPSRFSGSRSGTDFTLTISSLQPEDFATYYCQQYSYSPITFGQGTKVEIKRTGGGSGGGGSGGGASEVQLVESGGGLVQPGGSLRLSCAASGFNLFGYGMHWVRQAPGKGLEWVAEIGPYYYYTSYADSVKGRFTISADTSKNTAYLQMNSLRAEDTAVYYCSRENYDMAMDYWGQGTLVTVSS
B5: p53_R248QW_A2_c114 (scFv)
scFv: DIQMTQSPSSLSASVGDRVTITCRASQDVNTAVAWYQQKPGKAPKLLIYSASFLYSGVPSRFSGSRSGTDFTLTISSLQPEDFATYYCQQYLYQPWTFGQGTKVEIKRTGGGSGGGGSGGGASEVQLVESGGGLVQPGGSLRLSCAASGFNIDYYGMHWVRQAPGKGLEWVASLYGGSDSTDYADSVKGRFTISADTSKNTAYLQMNSLRAEDTAVYYCSRQYSAYFDYWGQGTLVTVSS
B6: p53_R248QW_A2_c117 (scFv)
scFv: DIQMTQSPSSLSASVGDRVTITCRASQDVNTAVAWYQQKPGKAPKLLIYSASFLYSGVPSRFSGSRSGTDFTLTISSLQPEDFATYYCQQGLYYPWTFGQGTKVEIKRTGGGSGGGGSGGGASEVQLVESGGGLVQPGGSLRLSCAASGFNVSYSSIHWVRQAPGKGLEWVAEIWPDSGQTWYADSVKGRFTISADTSKNTAYLQMNSLRAEDTAVYYCSRSSYFDAMDYWGQGTLVTVSS
B7: KRAS_G12V_A11_V23 (scFv)
scFv: DIQMTQSPSSLSASVGDRVTITCRASQDVNTAVAWYQQKPGKAPKLLIYSASFLYSGVPSRFSGSRSGTDFTLTISSLQPEDFATYYCQQYSYYPITFGQGTKVEIKRTGGGSGGGGSGGGASEVQLVESGGGLVQPGGSLRLSCAASGFNLSTHVMHWVRQAPGKGLEWVAEFYPYVGYTYYADSVKGRFTISADTSKNTAYLQMNSLRAEDTAVYYCSRGYRYQYMDVWGQGTLVTVSS
B8: KRAS_G12_VA11_V9 (scFv)
scFv: DIQMTQSPSSLSASVGDRVTITCRASQDVNTAVAWYQQKPGKAPKLLIYSASFLYSGVPSRFSGSRSGTDFTLTISSLQPEDFATYYCQQYAYYPITFGQGTKVEIKRTGGGSGGGGSGGGASEVQLVESGGGLVQPGGSLRLSCAASGFNISSTGMHWVRQAPGKGLEWVAELLGGSGNTNYADSVKGRFTISADTSKNTAYLQMNSLRAEDTAVYYCSRGLQYSAMDYWGQGTLVTVSS
B9: KRAS_G12V_A11V10 (scFv)
scFv: DIQMTQSPSSLSASVGDRVTITCRASQDVNTAVAWYQQKPGKAPKLLIYSASFLYSGVPSRFSGSRSGTDFTLTISSLQPEDFATYYCQQYEYYPITFGQGTKVEIKRTGGGSGGGGSGGGASEVQLVESGGGLVQPGGSLRLSCAASGFNFFSTVIHWVRQAPGKGLEWVAEIYPWSGSTYYADSVKGRFTISADTSKNTAYLQMNSLRAEDTAVYYCSRSRSSNYYFDVWGQGTLVTVSS
B10: KRAS_G12V_A11_V21 (scFv)
scFv: DIQMTQSPSSLSASVGDRVTITCRASQDVNTAVAWYQQKPGKAPKLLIYSASFLYSGVPSRFSGSRSGTDFTLTISSLQPEDFATYYCQQYTYYPITFGQGTKVEIKRTGGGSGGGGSGGGASEVQLVESGGGLVQPGGSLRLSCAASGFNLHGYLMHWVRQAPGKGLEWVAFIYPPNGYTYYADSVKGRFTISADTSKNTAYLQMNSLRAEDTAVYYCSRGVDYAYLDYWGQGTLVTVSS
B11: KRAS_G12V_A11_V3 (scFv)
scFv: DIQMTQSPSSLSASVGDRVTITCRASQDVNTAVAWYQQKPGKAPKLLIYSASFLYSGVPSRFSGSRSGTDFTLTISSLQPEDFATYYCQQSSYTPITFGQGTKVEIKRTGGGSGGGGSGGGASEVQLVESGGGLVQPGGSLRLSCAASGFNISQGGIHWVRQAPGKGLEWVAYVYPGGGQTNYADSVKGRFTISADTSKNTAYLQMNSLRAEDTAVYYCSRGYDYSAFDYWGQGTLVTVSS
B12: KRAS_G12V_A11_V24 (scFv)
scFv: DIQMTQSPSSLSASVGDRVTITCRASQDVNTAVAWYQQKPGKAPKLLIYSASFLYSGVPSRFSGSRSGTDFTLTISSLQPEDFATYYCQQSSVEPWTFGQGTKVEIKRTGGGSGGGGSGGGASEVQLVESGGGLVQPGGSLRLSCAASGFNVSYYSIHWVRQAPGKGLEWVAYIYPWNDYTYYADSVKGRFTISADTSKNTAYLQMNSLRAEDTAVYYCSRGSYYSFDYWGQGTLVTVSS
B13: IDH2_R140Q_B7_c13 (scFv)
scFv: DIQMTQSPSSLSASVGDRVTITCRASQDVNTAVAWYQQKPGKAPKLLIYSASFLYSGVPSRFSGSRSGTDFTLTISSLQPEDFATYYCQQYSLYSPMTFGQGTKVEIKRTGGGSGGGGSGGGASEVQLVESGGGLVQPGGSLRLSCAASGFNSFLSIHWVRQAPGKGLEWVAHIFPSSDYTSYADSVKGRFTISADTSKNTAYLQMNSLRAEDTAVYYCSRGKHSSDSNYYMDYWGQGTLVTVSS
notes: also called IDH2 R140Q(134-143)-B7 c1.3
B14: IDH2_R140Q_B7_c11 (scFv)
scFv: DIQMTQSPSSLSASVGDRVTITCRASQDVNTAVAWYQQKPGKAPKLLIYSASFLYSGVPSRFSGSRSGTDFTLTISSLQPEDFATYYCQQVYSSPFTFGQGTKVEIKRTGGGSGGGGSGGGASEVQLVESGGGLVQPGGSLRLSCAASGFNVKYYMMHWVRQAPGKGLEWVAAISPGYDYTYYADSVKGRFTISADTSKNTAYLQMNSLRAEDTAVYYCSRSYWRYSVDVWGQGTLVTVSS
notes: also called IDH2 R140Q(134-143)-B7 c1.1
B15: IDH2_R140Q_B7_c129 (scFv)
scFv: DIQMTQSPSSLSASVGDRVTITCRASQDVNTAVAWYQQKPGKAPKLLIYSASFLYSGVPSRFSGSRSGTDFTLTISSLQPEDFATYYCQQGKAYWPATFGQGTKVEIKRTGGGSGGGGSGGGASEVQLVESGGGLVQPGGSLRLSCAASGFNVGHYRMHWVRQAPGKGLEWVAMVSPNGYYTYYADSVKGRFTISADTSKNTAYLQMNSLRAEDTAVYYCSRGYSSYAFDYWGQGTLVTVSS
notes: also called IDH2 R140Q(134-143)-B7 c1.29
B16: IDH2_R140Q_B7_c18 (scFv)
scFv: DIQMTQSPSSLSASVGDRVTITCRASQDVNTAVAWYQQKPGKAPKLLIYSASFLYSGVPSRFSGSRSGTDFTLTISSLQPEDFATYYCQQSYYMPFTFGQGTKVEIKRTGGGSGGGGSGGGASEVQLVESGGGLVQPGGSLRLSCAASGFNIFRGYMHWVRQAPGKGLEWVAMISPHSDYTSYADSVKGRFTISADTSKNTAYLQMNSLRAEDTAVYYCSRSYGWAAFDYWGQGTLVTVSS
B17: IDH2_R140Q_B7_D4 (scFv)
scFv: DIQMTQSPSSLSASVGDRVTITCRASQDVNTAVAWYQQKPGKAPKLLIYSASFLYSGVPSRFSGSRSGTDFTLTISSLQPEDFATYYCQQYSYSPPTFGQGTKVEIKRTGGGSGGGGSGGGASEVQLVESGGGLVQPGGSLRLSCAASGFNISDTYIHWVRQAPGKGLEWVASISPRTGYNRYADSVKGRFTISADTSKNTAYLQMNSLRAEDTAVYYCSRAYYSYAYAMDVWGQGTLVTVSS

target: p53 wt(245-254) peptide … with HLA-A2 and b2M on peptide-pulsed T2 cells (human); assay: flow cytometry, phage-displayed scFv on peptide-pulsed T2 cells (FIG. 4)
Protocol: (§1) Cells were stained with 10 μL of precipitated phage per 100 μL of cells, washed and stained with rabbit anti-M13 antibody, then washed and stained with anti-Rabbit-PE antibody. Cells were stained with a live/dead Near-IR dye, washed, and analyzed by an LSRII flow cytometer.
(§2) The pulsed cells were pelleted, washed once in cold stain buffer (PBS containing 0.5% BSA, 2 mM EDTA, and 0.1% sodium azide), and resuspended in 100 μL of stain buffer. Phage staining was performed on ice with 10 uL (approximately 1×10⁹) phage for 1 hour in 100 uL total volume, followed by one 4 mL wash in cold stain buffer. Cells were then stained with 1 uL of rabbit anti-M13 antibody (Pierce, Rockford, Ill.) in 100 uL total volume on ice for 1 hour and washed once with 4 mL of cold stain buffer. Cells were stained with anti-rabbit-PE (Biolegend) on ice for 1 hour in 100 uL total volume, followed by incubation with LIVE/DEAD Fixable Near-IR Dead Cell Stain (Thermo Fisher) for 10 min at room temperature per manufacturer's instructions. Cells were washed once in 4 mL of stain buffer followed by resuspension in 300 uL of stain buffer before analysis. Stained cells were analyzed using an LSRII flow cytometer (Becton Dickinson, Mansfield, Mass.).

| binding result | Binder |
| --- | --- |
| no binding | B1 |
| no binding | B2 |
| no binding | B3 |
| no binding | B4 |
| no binding | B5 |
| no binding | B6 |

target: KRAS wt(7-16) peptide … with HLA-A11 and b2M on peptide-pulsed Hs611.T cells (human); assay: flow cytometry, phage-displayed scFv on peptide-pulsed Hs611.T cells (FIG. 11)
Protocol: as §1, §2

| binding result | Binder |
| --- | --- |
| no binding | B7 |
| no binding | B8 |
| no binding | B9 |
| no binding | B10 |
| no binding | B11 |
| no binding | B12 |

target: T1, IDH2 wt(134-143) peptide … with HLA-B7 and b2M on cells (human); assay: flow cytometry, phage-displayed scFv on peptide-pulsed RPMI-6666 cells (FIG. 3)
T1 construct: peptide-pulsed RPMI-6666 cells in flow cytometry
Protocol: as §1, §2

| binding result | Binder |
| --- | --- |
| no binding | B13 |
| no binding | B14 |
| no binding | B15 |
| no binding | B16 |
| no binding | B17 |

target: control 1 peptide (…, artificial sequence) HLA-B7 biotinylated monomer (biotinylated (site not given)); assay: phage ELISA on monomer-coated streptavidin plate (FIG. 1)

| binding result | Binder |
| --- | --- |
| no binding | B13 |
| no binding | B14 |
| no binding | B15 |
| no binding | B16 |
| no binding | B17 |

target: control 3 peptide (…, a different peptide from wt IDH2) HLA-B7 biotinylated monomer (biotinylated (site not given)); assay: as above

| binding result | Binder |
| --- | --- |
| no binding | B13 |
| no binding | B14 |
| no binding | B15 |
| no binding | B16 |
| no binding | B17 |

target: T2, IDH2 wt peptide (…) HLA-B7 biotinylated monomer (biotinylated (site not given)); assay: as above
T2 construct: also called wt version of the peptide of interest in complex with the same HLA allele

| binding result | Binder |
| --- | --- |
| no binding | B13 |
| no binding | B14 |
| no binding | B15 |
| no binding | B16 |
| no binding | B17 |
